B1: F1*; the commonest letter at each place (parent)
chain: GAGACCGCAACTGAAAAGTTGTTATCACTTGTCGTAAGACACTTTGGATGGGTTGAAGTTCTGCACGTAGAAGCAAAAGGC

Variants of: B1
Assay: fraction ligated after 30 min (ligated reads / total reads); higher = more ligase activity
Conditions: with F1*sub RNA substrate (template-directed ligation), 42 °C
Summary of the method: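 Ligase ribozyme variants were made from oligo-pool templates by PCR amplification, T7 transcription and gel purification. After gel separation, ligated and unligated bands were reverse transcribed with barcoded primers and sequenced on a MiSeq, with core bases filtered at quality ≥20. The fraction ligated for each variant was the number of ligated reads divided by total reads.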

Row | Variant | fraction ligated
1 | T45C G55T | 0.134
2 | T45C T49A | 0.0409
3 | T45C T49C | 0.0485
4 | T45C T49G | 0.0625
5 | T45G | 0.385
6 | T45G A48C | 0.122
7 | T45G A48G | 0.0747
8 | T45G A48T | 0.187
9 | T45G A56C | 0.187
10 | T45G A56G | 0.775
11 | T45G A56T | 0.79
12 | T45G A57C | 0.791
13 | T45G A57G | 0.769
14 | T45G A57T | 0.8
15 | T45G G46A | 0.032
16 | T45G G46C | 0.0668
17 | T45G G46T | 0.246
18 | T45G G47A | 0.781
19 | T45G G47C | 0.194
20 | T45G G47T | 0.0452
21 | T45G G50A | 0.0135

Row | Variant | fraction ligated
22 | T45G G50C | 0.0186
23 | T45G G50T | 0.0316
24 | T45G G55A | 0.045
25 | T45G G55C | 0.0194
26 | T45G G55T | 0.0383
27 | T45G T49A | 0.0341
28 | T45G T49C | 0.0508
29 | T45G T49G | 0.0893
30 | G46A | 0.812
31 | G46A A48C | 0.675
32 | G46A A48G | 0.609
33 | G46A A48T | 0.0714
34 | G46A A56C | 0.483
35 | G46A A56G | 0.487
36 | G46A A56T | 0.645
37 | G46A A57C | 0.793
38 | G46A A57G | 0.799
39 | G46A A57T | 0.803
40 | G46A G47A | 0.804
41 | G46A G47C | 0.146
42 | G46A G47T | 0.115

Row | Variant | fraction ligated
43 | G46A G50A | 0.0565
44 | G46A G50C | 0.0754
45 | G46A G50T | 0.232
46 | G46A G55A | 0.786
47 | G46A G55C | 0.224
48 | G46A G55T | 0.783
49 | G46A T49A | 0.501
50 | G46A T49C | 0.38
51 | G46A T49G | 0.627
52 | G46C | 0.804
53 | G46C A48C | 0.621
54 | G46C A48G | 0.191
55 | G46C A48T | 0.0498
56 | G46C A56C | 0.324
57 | G46C A56G | 0.315
58 | G46C A56T | 0.447
59 | G46C A57C | 0.778
60 | G46C A57G | 0.712
61 | G46C A57T | 0.76
62 | G46C G47A | 0.798
63 | G46C G47C | 0.0992

Row | Variant | fraction ligated
64 | G46C G47T | 0.0897
65 | G46C G50A | 0.0524
66 | G46C G50C | 0.0426
67 | G46C G50T | 0.165
68 | G46C G55A | 0.804
69 | G46C G55C | 0.171
70 | G46C G55T | 0.674
71 | G46C T49A | 0.344
72 | G46C T49C | 0.0853
73 | G46C T49G | 0.407
74 | G46T | 0.791
75 | G46T A48C | 0.127
76 | G46T A48G | 0.352
77 | G46T A48T | 0.144
78 | G46T A56C | 0.136
79 | G46T A56G | 0.187
80 | G46T A56T | 0.237
81 | G46T A57C | 0.726
82 | G46T A57G | 0.795
83 | G46T A57T | 0.754

Source: the supplement of paper PMC6755084
